Values quoted from earlier work, collected in paper PMC3623542.
Like-named read-outs stand apart in the source and are kept apart here.

Tests used:
DnaK (Escherichia coli) [1] = target: DnaK (Escherichia coli) (UniProt P0A6Y8)
DnaK (Escherichia coli) [2] = target: DnaK (Escherichia coli) (UniProt P0A6Y8); test: SPR
DnaK (Escherichia coli) [3] = target: DnaK (Escherichia coli) (UniProt P0A6Y8); test: SPR; remark: listed apart in the source
DnaK (Escherichia coli) [4] = target: DnaK (Escherichia coli) (UniProt P0A6Y8); test: SPR; remark: listed apart in the source
DnaK (Escherichia coli) [5] = target: DnaK (Escherichia coli) (UniProt P0A6Y8); remark: listed apart in the source
DnaK (Escherichia coli) [6] = target: DnaK (Escherichia coli) (UniProt P0A6Y8); test: NMR

DnaK (Escherichia coli), sequence (P0A6Y8 2-638): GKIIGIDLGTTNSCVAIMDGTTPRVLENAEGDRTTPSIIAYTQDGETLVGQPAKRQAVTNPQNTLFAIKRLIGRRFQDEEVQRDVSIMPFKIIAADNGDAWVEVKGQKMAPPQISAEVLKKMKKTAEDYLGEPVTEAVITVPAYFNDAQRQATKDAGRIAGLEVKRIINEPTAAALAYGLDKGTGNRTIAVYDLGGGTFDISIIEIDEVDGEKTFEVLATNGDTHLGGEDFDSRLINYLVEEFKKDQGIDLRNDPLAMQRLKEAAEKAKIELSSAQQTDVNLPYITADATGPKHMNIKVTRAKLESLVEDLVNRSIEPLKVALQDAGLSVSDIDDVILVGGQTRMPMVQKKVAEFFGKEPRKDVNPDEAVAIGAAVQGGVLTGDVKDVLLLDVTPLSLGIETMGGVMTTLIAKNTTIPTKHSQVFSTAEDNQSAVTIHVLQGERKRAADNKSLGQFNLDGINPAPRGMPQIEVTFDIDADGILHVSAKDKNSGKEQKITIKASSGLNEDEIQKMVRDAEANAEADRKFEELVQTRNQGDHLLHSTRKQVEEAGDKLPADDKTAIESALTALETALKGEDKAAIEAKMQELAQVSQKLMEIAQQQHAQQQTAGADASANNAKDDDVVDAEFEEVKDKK
DnaJ, sequence (P08622 2-376): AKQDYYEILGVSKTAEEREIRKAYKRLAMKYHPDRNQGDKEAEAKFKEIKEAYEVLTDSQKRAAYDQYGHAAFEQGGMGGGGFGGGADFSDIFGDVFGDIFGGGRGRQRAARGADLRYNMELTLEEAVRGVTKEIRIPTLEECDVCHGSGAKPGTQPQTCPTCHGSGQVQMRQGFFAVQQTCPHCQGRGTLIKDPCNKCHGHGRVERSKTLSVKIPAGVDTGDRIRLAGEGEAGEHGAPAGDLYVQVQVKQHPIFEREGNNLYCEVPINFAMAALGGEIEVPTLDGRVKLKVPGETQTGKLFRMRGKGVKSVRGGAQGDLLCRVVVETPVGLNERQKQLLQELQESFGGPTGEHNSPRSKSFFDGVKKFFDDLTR
DnaJ 1-75, sequence (P08622 1-75): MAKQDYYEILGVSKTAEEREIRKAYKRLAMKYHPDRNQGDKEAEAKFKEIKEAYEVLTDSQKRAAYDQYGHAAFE

Substance	Kd (DnaK (Escherichia coli) [1]) [µM]	Kd (DnaK (Escherichia coli) [2]) [µM]	Kd (DnaK (Escherichia coli) [3]) [µM]	Kd (DnaK (Escherichia coli) [4]) [µM]	Kd (DnaK (Escherichia coli) [5]) [µM]	Kd (DnaK (Escherichia coli) [6]) [µM]
DnaJ (from UniProt P08622)	> 2	0.07	> 1	0.3	0.14	
DnaJ 1-75 (from UniProt P08622)						10
